Data taken from US20180291083A1 (IMMATICS BIOTECHNOLOGIES, published 2018).

B1: ISEAGKDLLY (peptide)
peptide: ISEAGKDLLY
B2: AAADHHSLY (peptide)
peptide: AAADHHSLY
B3: YSDKEFAGSY (peptide)
peptide: YSDKEFAGSY
B4: YSHPQYSSY (peptide)
peptide: YSHPQYSSY
B5: VTEEPQRLFY (peptide)
peptide: VTEEPQRLFY
B6: STDSAGSSY (peptide)
peptide: STDSAGSSY
B7: SVADIRNAY (peptide)
peptide: SVADIRNAY
B8: HVDQDLTTY (peptide)
peptide: HVDQDLTTY
B9: FMDSESFYY (peptide)
peptide: FMDSESFYY
B10: ITDIHIKY (peptide)
peptide: ITDIHIKY
B11: YVDAGTPMY (peptide)
peptide: YVDAGTPMY
B12: FTDIDGQVY (peptide)
peptide: FTDIDGQVY
B13: YTDKKSIIY (peptide)
peptide: YTDKKSIIY
B14: RSDPGGGGLAY (peptide)
peptide: RSDPGGGGLAY
B15: WIGDKSFEY (peptide)
peptide: WIGDKSFEY
B16: ATDIVDSQY (peptide)
peptide: ATDIVDSQY
B17: LTDSEKGNSY (peptide)
peptide: LTDSEKGNSY
B18: VTEGVAQTSFY (peptide)
peptide: VTEGVAQTSFY
B19: TFDLTVVSY (peptide)
peptide: TFDLTVVSY
B20: YSDIGHLL (peptide)
peptide: YSDIGHLL
B21: EYNTIKDKF (peptide)
peptide: EYNTIKDKF
B22: TYVENLRLL (peptide)
peptide: TYVENLRLL
B23: SYADNILSF (peptide)
peptide: SYADNILSF
B24: RYLGKNWSF (peptide)
peptide: RYLGKNWSF
B25: YYLSHLERI (peptide)
peptide: YYLSHLERI
B26: IFVARLYYF (peptide)
peptide: IFVARLYYF
B27: KYSSGFRNI (peptide)
peptide: KYSSGFRNI
B28: KYLADLPTL (peptide)
peptide: KYLADLPTL
B29: LYSDIGHLL (peptide)
peptide: LYSDIGHLL
B30: SFQSKATVF (peptide)
peptide: SFQSKATVF
B31: IYFSNTHFF (peptide)
peptide: IYFSNTHFF
B32: RFPPTPPLF (peptide)
peptide: RFPPTPPLF
B33: KYIEYYLVL (peptide)
peptide: KYIEYYLVL
B34: RYLDEINLL (peptide)
peptide: RYLDEINLL
B35: RFYLLTEHF (peptide)
peptide: RFYLLTEHF
B36: LYQDRFDYL (peptide)
peptide: LYQDRFDYL
B37: VFLPSEGFNF (peptide)
peptide: VFLPSEGFNF
B38: TYPQLEGFKF (peptide)
peptide: TYPQLEGFKF
B39: IFKEHNFSF (peptide)
peptide: IFKEHNFSF
B40: RLIAKEMNI (peptide)
peptide: RLIAKEMNI
B41: KAYNRVIFV (peptide)
peptide: KAYNRVIFV
B42: ILAAVETRL (peptide)
peptide: ILAAVETRL
B43: FLLPKVQSI (peptide)
peptide: FLLPKVQSI
B44: KLLGYDVHV (peptide)
peptide: KLLGYDVHV
B45: FLLPKVQSIQL (peptide)
peptide: FLLPKVQSIQL
B46: YLLPSVVLL (peptide)
peptide: YLLPSVVLL
B47: SLMDLQERL (peptide)
peptide: SLMDLQERL
B48: FSLEDLVRI (peptide)
peptide: FSLEDLVRI
B49: AMPDSPAEV (peptide)
peptide: AMPDSPAEV
B50: KLGPVAVSI (peptide)
peptide: KLGPVAVSI
B51: ILHAQTLKI (peptide)
peptide: ILHAQTLKI
B52: SLFEGIYTI (peptide)
peptide: SLFEGIYTI
B53: SLADVHIEV (peptide)
peptide: SLADVHIEV
B54: FAFSGVLRA (peptide)
peptide: FAFSGVLRA
B55: YLNEKSLQL (peptide)
peptide: YLNEKSLQL
B56: FLFDKLLLI (peptide)
peptide: FLFDKLLLI
B57: KLSDNILKL (peptide)
peptide: KLSDNILKL
B58: SLYVQQLKI (peptide)
peptide: SLYVQQLKI
B59: FLINTNSEL (peptide)
peptide: FLINTNSEL
B60: VMLQINPKL (peptide)
peptide: VMLQINPKL
B61: peptide QAAQRTAL (SEQ ID NO: 107) (peptide)
peptide: QAAQRTAL
notes: synthetic peptide; also called AFF3 peptide
B62: peptide ILAIRQNAL (SEQ ID NO: 108) (peptide)
peptide: ILAIRQNAL
notes: synthetic peptide; also called AGPAT5 peptide
B63: peptide FGLARIYSF (SEQ ID NO: 110) (peptide)
peptide: FGLARIYSF
notes: synthetic peptide; also called CDK6 peptide
B64: peptide DANSRTSQL (SEQ ID NO: 113) (peptide)
peptide: DANSRTSQL
notes: synthetic peptide; also called MAP3K1 peptide
B65: peptide LGHVRYVL (SEQ ID NO: 109) (peptide)
peptide: LGHVRYVL
notes: as for B62
B66: peptide APLLRHWEL (SEQ ID NO: 112) (peptide)
peptide: APLLRHWEL
notes: synthetic peptide; also called HLA-DOA peptide

Biological target: T1, HLA-A*01:01 (human)
T1 construct: Peptide-receptive MHC class I monomer made by UV cleavage of a UV-sensitive ligand
Test: UV ligand exchange ELISA; exchange yield grade
How it was run: (§1)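 Peptide-MHC complexes formed by UV-triggered exchange of a cleavable ligand for the test peptide. Exchange yield measured on streptavidin-coated plates by HRP anti-β2m ELISA (1 h, 37 °C; A450) on 100-fold diluted samples. Refolded HLA-A*02:01 monomers at 15-500 ng/ml served as standards.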

Row | Binder | peptide exchange yield [%]
1 | B1 | 50 to 75
2 | B2 | 50 to 75
3 | B3 | > 75
4 | B4 | 20 to 50
5 | B5 | > 75
6 | B6 | > 75
7 | B7 | 20 to 50
8 | B8 | 20 to 50
9 | B9 | 10 to 20
10 | B10 | > 75
11 | B11 | 50 to 75
12 | B12 | 50 to 75
13 | B13 | 50 to 75
14 | B14 | 50 to 75
15 | B15 | 20 to 50
16 | B16 | 50 to 75
17 | B17 | 50 to 75
18 | B18 | > 75
19 | B19 | 20 to 50
20 | B20 | 20 to 50

Biological target: T2, HLA-A*24:02 (human)
T2 construct: Peptide-receptive MHC class I monomer made by UV cleavage of a UV-sensitive ligand
Test: UV ligand exchange ELISA; exchange yield grade
How it was run: as §1

Row | Binder | peptide exchange yield [%]
21 | B21 | 50 to 75
22 | B22 | 50 to 75
23 | B23 | > 75
24 | B24 | > 75
25 | B25 | > 75
26 | B26 | > 75
27 | B27 | 50 to 75
28 | B28 | > 75
29 | B29 | 50 to 75
30 | B30 | 20 to 50
31 | B31 | 50 to 75
32 | B32 | > 75
33 | B33 | > 75
34 | B34 | 50 to 75
35 | B35 | 50 to 75
36 | B36 | > 75
37 | B37 | 50 to 75
38 | B38 | > 75
39 | B39 | > 75

Biological target: T3, HLA-A*02:01 (human)
T3 construct: Peptide-receptive MHC class I monomer made by UV cleavage of a UV-sensitive ligand
Test: UV ligand exchange ELISA; exchange yield grade
How it was run: as §1

Row | Binder | peptide exchange yield [%]
40 | B40 | > 75
41 | B41 | 50 to 75
42 | B42 | 50 to 75
43 | B43 | > 75
44 | B44 | 50 to 75
45 | B45 | 50 to 75
46 | B46 | > 75
47 | B47 | 50 to 75
48 | B48 | 20 to 50
49 | B49 | > 75
50 | B50 | > 75
51 | B51 | 50 to 75
52 | B52 | > 75
53 | B53 | > 75
54 | B54 | 20 to 50
55 | B55 | > 75
56 | B56 | > 75
57 | B57 | > 75
58 | B58 | > 75
59 | B59 | > 75
60 | B60 | 50 to 75

Biological target: T4, human recombinant HLA-B*08:01 with b2m (human)
T4 construct: Peptide-receptive MHC class I used in the pMHC stability assay by ImmunAware; also called MHC heavy chain and b2m
Test: pMHC stability assay at 37 C, mean half-life of b2m on heavy chain, grade (T1/2 >2 h = +; >4 h = ++; >6 h = +++; >10 h = ++++)
Procedure: The peptide-MHC stability for HLA-B*08:01 peptides was performed by ImmunAware (Copenhagen, Denmark). The data were obtained using a proximity based, homogenous, real-time assay to measure the dissociation of peptides from HLA class I molecules. First human recombinant HLA-B*08:01 and b2m were expressed in E. coli and purified in a series of liquid chromatography based steps (Ferre et al., 2003; Ostergaard et al., 2001). Afterwards, the stability of a peptide-MHC complex (pMHC) can be determined by measuring the amount of b2m associated with the MHC heavy chain over time at 37° C. (Harndahl et al., 2012). The stability of each pMHC, expressed as the half life of b2m associated with the respective heavy chain, was calculated by fitting the data to a one-phase dissociation equation.

Row | Binder | mean half-life (T1/2) of peptide-MHC complex [h]
61 | B61 | 4 to 6
62 | B62 | 4 to 6
63 | B63 | 2 to 4
64 | B64 | 6 to 10
65 | B65 | 2 to 4
66 | B66 | 2 to 4
